Measurements from patent US20140178935A1 (AVEO PHARMACEUTICALS, published 2014).

T1: recombinant mhm chimeric HGF protein containing the region I499-R556 of hHGF disposed between murine sequences (mouse-human-mouse chimera, UniProt Q08048 56-728)
T1 construct: also called mhm chimera (I499-R556)
T1 chain: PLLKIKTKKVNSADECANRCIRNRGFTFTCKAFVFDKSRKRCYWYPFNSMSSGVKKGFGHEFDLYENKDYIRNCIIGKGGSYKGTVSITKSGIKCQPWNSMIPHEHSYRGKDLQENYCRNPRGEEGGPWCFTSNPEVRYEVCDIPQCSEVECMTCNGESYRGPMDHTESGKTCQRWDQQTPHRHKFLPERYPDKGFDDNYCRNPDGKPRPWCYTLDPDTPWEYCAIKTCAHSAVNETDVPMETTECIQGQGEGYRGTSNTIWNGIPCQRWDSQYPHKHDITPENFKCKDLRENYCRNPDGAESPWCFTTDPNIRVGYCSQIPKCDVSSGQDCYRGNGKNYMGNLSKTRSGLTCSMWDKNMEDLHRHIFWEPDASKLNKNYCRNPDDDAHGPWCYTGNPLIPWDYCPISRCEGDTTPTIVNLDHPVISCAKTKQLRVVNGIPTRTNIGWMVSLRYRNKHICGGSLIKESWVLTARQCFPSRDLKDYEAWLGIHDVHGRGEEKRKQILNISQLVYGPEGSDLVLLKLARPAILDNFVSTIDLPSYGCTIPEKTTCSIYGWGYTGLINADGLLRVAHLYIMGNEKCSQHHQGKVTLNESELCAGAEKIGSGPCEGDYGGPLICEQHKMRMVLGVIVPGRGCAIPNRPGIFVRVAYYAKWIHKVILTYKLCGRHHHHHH

T2: recombinant mhm chimeric HGF protein containing human W507-L585 HGF sequence disposed within mouse HGF … (mouse-human-mouse chimera, UniProt Q08048 56-728)
T2 construct: CHO supernatant; also called mhm chimera (W507-L585); MHM chimera (507-585)
T2 chain: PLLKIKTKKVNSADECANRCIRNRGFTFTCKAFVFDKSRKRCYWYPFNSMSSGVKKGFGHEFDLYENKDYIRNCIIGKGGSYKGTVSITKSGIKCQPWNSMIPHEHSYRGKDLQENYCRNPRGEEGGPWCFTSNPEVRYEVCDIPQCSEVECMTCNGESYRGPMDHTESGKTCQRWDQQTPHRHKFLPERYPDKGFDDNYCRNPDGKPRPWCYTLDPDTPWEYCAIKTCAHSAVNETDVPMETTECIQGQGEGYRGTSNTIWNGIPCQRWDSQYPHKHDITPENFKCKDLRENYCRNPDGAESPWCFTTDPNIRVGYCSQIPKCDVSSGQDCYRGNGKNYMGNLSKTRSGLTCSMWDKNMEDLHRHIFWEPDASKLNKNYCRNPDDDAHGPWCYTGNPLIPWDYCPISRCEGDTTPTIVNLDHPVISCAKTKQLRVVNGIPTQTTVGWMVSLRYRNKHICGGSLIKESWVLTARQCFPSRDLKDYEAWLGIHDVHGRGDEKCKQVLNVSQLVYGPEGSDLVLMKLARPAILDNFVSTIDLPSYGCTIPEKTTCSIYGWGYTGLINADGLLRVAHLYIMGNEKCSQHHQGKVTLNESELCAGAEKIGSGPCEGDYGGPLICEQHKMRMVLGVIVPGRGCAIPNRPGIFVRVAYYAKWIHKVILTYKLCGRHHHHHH


What was measured:
[1] = molecular target: T3, recombinant human HGF (R&D Systems, Catalog No. 294-HGN-025) (human, UniProt P14210 32-728); assay: cell-based or functional assay
T3 sequence (P14210 32-728 limits assumed): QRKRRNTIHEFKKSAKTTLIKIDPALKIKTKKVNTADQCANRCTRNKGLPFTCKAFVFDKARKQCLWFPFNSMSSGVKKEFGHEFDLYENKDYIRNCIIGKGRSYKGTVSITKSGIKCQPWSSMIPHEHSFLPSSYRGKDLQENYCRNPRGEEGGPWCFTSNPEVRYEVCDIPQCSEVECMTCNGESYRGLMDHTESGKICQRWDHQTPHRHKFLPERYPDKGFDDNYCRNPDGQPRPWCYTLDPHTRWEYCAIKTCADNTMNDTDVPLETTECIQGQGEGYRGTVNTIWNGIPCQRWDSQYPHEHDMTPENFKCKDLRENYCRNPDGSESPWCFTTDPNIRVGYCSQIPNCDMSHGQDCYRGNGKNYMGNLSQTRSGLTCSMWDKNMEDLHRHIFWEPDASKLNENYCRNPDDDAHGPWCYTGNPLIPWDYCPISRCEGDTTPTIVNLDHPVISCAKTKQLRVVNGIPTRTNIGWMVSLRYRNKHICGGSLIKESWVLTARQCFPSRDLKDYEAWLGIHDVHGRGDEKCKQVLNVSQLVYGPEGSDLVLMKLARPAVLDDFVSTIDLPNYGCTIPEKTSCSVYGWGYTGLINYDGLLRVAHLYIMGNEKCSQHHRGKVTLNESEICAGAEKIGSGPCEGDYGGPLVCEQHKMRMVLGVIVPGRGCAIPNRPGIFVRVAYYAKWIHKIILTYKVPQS

[2] = molecular target: T3, recombinant human HGF (R&D Systems, …); assay: SPR, captured antibody, HGF injected, 25 C
Description: (§1) Mouse anti-human immunoglobulins (Jackson Labs, Catalog No. 209-005) were immobilized on carboxymethylated dextran CM4 sensor chips (BIAcore, Catalog No. BR-1006-68) by amine coupling (BIAcore, Catalog No. BR-1000-50) using a standard coupling protocol according to manufacturer's instructions. The analyses were performed at 25° C. using PBS (GIBCO, Catalog No. 14040-133) containing 0.05% surfactant P20 (BIAcore, Catalog No. BR-1000-54), and 2 mg/mL BSA (EMD, Catalog No. 2930).
(§2) The antibodies were captured in an individual flow cell at a flow rate of 10 μL/min. Injection time was variable for each antibody to yield approximately 20 RU of antibody captured for each cycle. […] The dissociation phase was monitored for 15 or 90 minutes, depending on concentration. The surface then was regenerated with 10 mM Glycine-HCl, pH 2.2 (BIAcore, Catalog No. BR-1003-54) injected for 3 minutes at a flow rate of 60 μL/min before another cycle was initiated.
Kinetic parameters were determined using the kinetic function of the BIAevalutation™ software with reference subtraction.

[3] = molecular target: T3, recombinant human HGF (R&D Systems, …); assay: competition ELISA (DELFIA): antibody inhibits biotinylated c-Met binding to plate-coated HGF
Description: The plates then were blocked with 200 μL of 5% non-fat dry milk in PBS for 1 hour at room temperature. […] 100 μL of sample per well was transferred to the assay plate and incubated for 2 hours at room temperature. The resulting plates were washed three times with PBS-0.1% Tween 20, and incubated for 1 hour at room temperature with Eu-labeled Streptavidin (Wallac, Catalog No. 1244-360) diluted 1:1000 in DELFIA assay buffer (Wallac, Catalog No. 4002-0010). The resulting plates were washed 3 times with DELFIA wash solution (Wallac, Catalog No. 4010-0010) and incubated with 100 μL/well DELFIA enhancement solution (Wallac #4001-0010) for 15 minutes at room temperature with agitation. The plates were read on Victor³V instrument (Perkin Elmer) using the Europium method. The IC₅₀ values were calculated using Prism.

[4] = molecular target: T3, recombinant human HGF (R&D Systems, …); assay: cell-based or functional assay; remark: listed apart in the source
[5] = molecular target: T1, recombinant mhm chimeric HGF protein …; assay: SPR, antibody immobilized, HGF protein injected, 25 C
Description: (§3) Analyses were performed at 25° C. using PBS (GIBCO, Catalog No. 14040-133) containing 0.05% surfactant P20 (BIAcore, Catalog No. R-1000-54), 2 mg/mL BSA (EMD, Catalog No. 2930) and 10 mg/mL CM-Dextran Sodium salt (Fluka, Catalog No. 86524) as running buffer. […] The resulting binding was determined as resonance units (RU) over baseline 30 seconds after the end of injection. […] Non-specific binding was monitored by comparing binding to a control surface.

[6] = molecular target: T4, recombinant mouse HGF (R&D Systems) (mouse, UniProt Q08048 33-728); assay: as above
T4 construct: Bought protein, construct not described; also called rmHGF (R&D Systems); murine HGF
T4 sequence (Q08048 33-728 limits assumed): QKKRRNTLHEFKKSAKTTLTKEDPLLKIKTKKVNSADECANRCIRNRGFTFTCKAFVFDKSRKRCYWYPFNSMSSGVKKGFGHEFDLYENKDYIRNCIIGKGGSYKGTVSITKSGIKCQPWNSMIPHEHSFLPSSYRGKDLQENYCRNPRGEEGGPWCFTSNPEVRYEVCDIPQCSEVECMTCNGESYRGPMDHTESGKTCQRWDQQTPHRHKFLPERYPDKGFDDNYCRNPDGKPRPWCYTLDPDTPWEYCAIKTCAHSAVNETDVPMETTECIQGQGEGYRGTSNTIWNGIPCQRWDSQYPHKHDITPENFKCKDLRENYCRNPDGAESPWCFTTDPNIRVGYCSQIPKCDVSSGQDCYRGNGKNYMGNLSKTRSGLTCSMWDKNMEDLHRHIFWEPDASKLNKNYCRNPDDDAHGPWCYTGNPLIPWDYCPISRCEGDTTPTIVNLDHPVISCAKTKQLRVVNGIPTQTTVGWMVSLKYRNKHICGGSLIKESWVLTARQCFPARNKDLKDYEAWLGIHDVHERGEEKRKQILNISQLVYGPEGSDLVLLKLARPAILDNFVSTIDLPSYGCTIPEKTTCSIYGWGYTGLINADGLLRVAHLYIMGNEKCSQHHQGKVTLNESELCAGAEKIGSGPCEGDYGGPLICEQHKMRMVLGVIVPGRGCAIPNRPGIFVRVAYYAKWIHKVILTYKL
Description: as §3

[7] = molecular target: T2, recombinant mhm chimeric HGF protein …; assay: as above
Description: as §3

[8] = molecular target: T3, recombinant human HGF (R&D Systems, …); assay: SPR, captured antibody, HGF injected, 37 C
Description: as §1, with “209-005) or rabbit anti-mouse immunoglobulins (BIAcore, Catalog No. BR-1005-14)” for “209-005)”, “instructions. […]” for “instructions.”, “25° C. and 37°” for “25°”, “2930) as running buffer.” for “2930).”
as §2, with “[…].” for “μL/min.”, “surface of mouse anti-human immunoglobulins sensor chips was” for “surface”, “then” for “then was”, “initiated. The surface of rabbit anti-mouse immunoglobulins sensor chips was regenerated with 10 mM Glycine-HCl, pH 1.7 (BIAcore, Catalog No. BR-1003-54) injected for 3 minutes at a flow rate of 60 μL/min before another cycle was initiated.” for “initiated.”
Kinetic parameters were determined using the kinetic function of the BIAevaluation software with reference subtraction.

EC50, inhibition of HGF-stimulated c-Met phosphorylation in PC-3 cells, Average of Two Trials [1] | Kd [2] | koff [2] | kon [2] | IC50 [3] | IC50, neutralization of HGF stimulated BrdU incorporation in 4 MBr-5 cells [4] | binding result [5] | binding result [6] | binding result [7] | Kd [8] | koff [8] | kon [8] | Binder
0.8 nM | 0.0071 nM | 1.4e-05 s⁻¹ | 2.2e+06 M⁻¹ s⁻¹ | 6 nM | 0.47 nM | binds | no binding | binds | – | – | – | HE2B8-1 (LR2B8HC + IgG1 constant region G1m(3) allotype allele 1, plus LR2B8LC + Kappa constant region Km(3) allotype allele 1) (antibody, V domains shown, Human Engineered 2B8 variant, human IgG1 kappa, made in HEK293E cells) VH: QVQLVQPGAEVVKPGTSVKLSCKASGYTFTTYWMHWVNQAPGQGLEWIGEINPTNGHTNYNEKFKGKATLTVDKSTSTAYMELSSLRSEDTAVYYCARNYVGSIFDYWGQGTLLTVSS VL: DIVMTQSPDSMAMSVGERVTLNCKASENVVSYVSWYQQKPGQSPKLLIYGASNRNTGVPDRFSGSGSATDFTLTISSVQAEDVADYHCGQSYNYPYTFGQGTKLEIKR
0.88 nM | 0.0052 nM | 9.6e-06 s⁻¹ | 1.8e+06 M⁻¹ s⁻¹ | 5.7 nM | 0.66 nM | binds | no binding | binds | – | – | – | HE2B8-2 (LR2B8HC + IgG1 constant region G1m(3) allotype allele 1, plus LRMR2B8LC + Kappa constant region Km(3) allotype allele 1) (antibody, V domains shown, Human Engineered 2B8 variant, human IgG1 kappa, made in HEK293E cells) VH: QVQLVQPGAEVVKPGTSVKLSCKASGYTFTTYWMHWVNQAPGQGLEWIGEINPTNGHTNYNEKFKGKATLTVDKSTSTAYMELSSLRSEDTAVYYCARNYVGSIFDYWGQGTLLTVSS VL: DIVMTQSPDSLAMSLGERVTLNCKASENVVSYVSWYQQKPGQSPKLLIYGASNRESGVPDRFSGSGSATDFTLTISSVQAEDVADYHCGQSYNYPYTFGQGTKLEIKR
0.79 nM | 0.002 nM | 4.1e-06 s⁻¹ | 2e+06 M⁻¹ s⁻¹ | 5.9 nM | 0.55 nM | binds | no binding | binds | – | – | – | HE2B8-3 (LRMR2B8HC + IgG1 constant region G1m(3) allotype allele 1, plus LR2B8LC + Kappa constant region Km(3) allotype allele 1) (antibody, V domains shown, Human Engineered 2B8 variant, human IgG1 kappa, made in HEK293E cells) VH: QVQLVQPGAEVKKPGTSVKLSCKASGYTFTTYWMHWVRQAPGQGLEWIGEINPTNGHTNYNQKFQGRATLTVDKSTSTAYMELSSLRSEDTAVYYCARNYVGSIFDYWGQGTLLTVSS VL: DIVMTQSPDSMAMSVGERVTLNCKASENVVSYVSWYQQKPGQSPKLLIYGASNRNTGVPDRFSGSGSATDFTLTISSVQAEDVADYHCGQSYNYPYTFGQGTKLEIKR
0.93 nM | – | – | – | 4.2 nM | 0.52 nM | binds | no binding | binds | 0.0058 nM | 1.4e-05 s⁻¹ | 2.5e+06 M⁻¹ s⁻¹ | sh2B8-9 (G1m(3)) = hu2B8 Hv5-51.1 + IgG1 constant region (G1m(3) allotype, allele 2) plus hu2B8 Kv1-39.1 + Kappa constant region (Km(3) allotype, allele 2) (antibody, Superhumanized 2B8 variant, human IgG1 kappa, made in 293T cells) heavy: not shown light: DIQMTQSPSSLSASVGDRVTITCKASENVVSYVSWYQQKPGKAPKLLIYGASNRNTGVPSRFSGSGSGTDFTLTISSLQPEDFATYYCGQSYNYPYTFGQGTKLEIKRTVAAPSVFIFPPSDEQLKSGTASVVCLLNNFYPREAKVQWKVDNALQSGNSQESVTEQDSKDSTYSLSSTLTLSKADYEKHKVYACEVTHQGLSSPVTKSFNRGEC
